# In patent US20220106360A1 (UNIVERSITY OF PITTSBURGH OF THE COMMONWEALTH SYSTEM OF …, published 2022):
# T1: VAPA 1-242 expressed from pEGFP-N1-VAPA; 1-242 (Addgene #18874) in HEK293 cells (UniProt Q9Z270 1-242)
# T1 construct: range 1-242; Used as a whole lysate of transfected HEK293 cells (1 mg/ml total protein), detected with anti-VAPA antibody; also called VAMP-associated protein A; VAPA proteins; not shown: EGFP implied by the vector name pEGFP-N1
# T1 sequence (looked up): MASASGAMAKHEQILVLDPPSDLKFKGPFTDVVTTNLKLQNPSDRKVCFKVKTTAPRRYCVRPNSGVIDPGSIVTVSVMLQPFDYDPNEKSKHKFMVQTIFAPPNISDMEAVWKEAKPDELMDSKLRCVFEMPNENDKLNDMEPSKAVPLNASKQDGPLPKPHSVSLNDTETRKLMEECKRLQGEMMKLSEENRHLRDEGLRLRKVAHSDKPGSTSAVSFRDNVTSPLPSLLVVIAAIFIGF
# T2: Kv2.1 (endogenous, rat cortical neurons) (rat, UniProt P15387 1-857)
# T2 construct: Endogenous channel in fixed, permeabilised primary cortical neurons of Sprague-Dawley rats, detected with a rabbit anti-Kv2.1 antibody; also called delayed-rectifying voltage-gated potassium channel Kv2.1
# T2 sequence: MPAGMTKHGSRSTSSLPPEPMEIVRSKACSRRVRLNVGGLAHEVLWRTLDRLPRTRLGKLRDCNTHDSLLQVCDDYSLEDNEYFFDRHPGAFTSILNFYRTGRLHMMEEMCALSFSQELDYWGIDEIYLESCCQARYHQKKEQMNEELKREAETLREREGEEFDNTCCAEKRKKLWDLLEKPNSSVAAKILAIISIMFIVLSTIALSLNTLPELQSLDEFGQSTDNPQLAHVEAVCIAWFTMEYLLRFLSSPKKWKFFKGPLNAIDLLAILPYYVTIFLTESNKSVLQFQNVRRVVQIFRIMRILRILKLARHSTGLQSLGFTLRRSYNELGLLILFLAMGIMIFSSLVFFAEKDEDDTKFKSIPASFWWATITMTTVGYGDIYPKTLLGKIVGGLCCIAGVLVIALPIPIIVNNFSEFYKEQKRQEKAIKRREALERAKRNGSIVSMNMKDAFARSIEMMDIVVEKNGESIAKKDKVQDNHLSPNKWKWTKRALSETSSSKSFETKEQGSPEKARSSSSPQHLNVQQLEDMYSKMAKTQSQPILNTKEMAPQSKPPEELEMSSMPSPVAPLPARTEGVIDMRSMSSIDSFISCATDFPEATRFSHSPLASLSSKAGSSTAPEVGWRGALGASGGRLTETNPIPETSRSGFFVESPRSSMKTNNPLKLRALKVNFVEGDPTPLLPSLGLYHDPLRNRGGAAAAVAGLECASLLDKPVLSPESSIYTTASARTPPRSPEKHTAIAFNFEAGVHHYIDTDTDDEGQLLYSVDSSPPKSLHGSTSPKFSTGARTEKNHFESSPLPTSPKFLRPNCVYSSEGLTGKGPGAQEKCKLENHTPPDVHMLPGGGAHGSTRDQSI
# Tests used:
# [1] = molecular target: T1, VAPA 1-242 expressed from …; assay: peptide spot array (far western) with lysate of HEK293 cells expressing VAPA 1-242, anti-VAPA detection
# Description: Standard 9-fluorenylmethoxy carbonyl chemistry was used to synthesize peptides and spot them onto Celluspots nitrocellulose disks prederivatized with a polyethylene glycerol spacer (Intavis), using the Respep peptide synthesizer. The peptides were spotted on 20 membranes fitted on microscope glass slides (Intavis) using an Intavis MultiPep robot. For hybridization and immunoblotting of arrays, Celluspots slides were washed in TBST (50 mM Tris-HCl, pH 7.4, 150 mM NaCl, 0.1% Tween 20) for 10 minutes, […] blocked for 1 hour at room temperature (RT) with gentle shaking in TBST containing 5% nonfat dry milk. Lysates from HEK293 cells transfected as before (Yeh et al., J Neurosci. 37: 5648-5658, 2017; Yeh et al., Proc Natl Acad Sci USA. 116: 15696-15607, 2019; Dustrude et al., Proc Natl Acad Sci USA. 113: E8443-E8452, 2016) with pEGFP-N1-VAPA; 1-242 (Addgene #18874) were made in 20 mM Tris, 50 mM NaCl, 2 mM MgCl₂, 1% Tergitol, 0.5% sodium deoxycholate, 0.1% sodium dodecyl sulfate with protease (Cat #B14002, Bimake), phosphatase (Cat #B15002, Bimake) inhibitor cocktails and 5 U/ml of universal nuclease (Cat #88702, Thermofisher) added extemporaneously. The concentration of lysates was measured by BCA (Cat #23227, Thermofisher) and peptide arrays were incubated with 1 mg/ml of total protein overnight at 4° C. (Yeh et al., J Neurosci. 37: 5648-5658, 2017; Yeh et al., Proc Natl Acad Sci USA. 116: 15696-15607, 2019; Moutal et al., Pain. 158: 2203-2221, 2017). Peptide arrays were washed 3 times for 5 minutes at RT with TBST and incubated with the primary antibody anti-VAPA (RRID AB_2722707; UC Davis/NIH NeuroMab Facility) for 2 hours at RT with gentle shaking in TBST, 5% BSA. After washing with TBST, the membranes were incubated in secondary antibody (IRDye® 800CW goat anti-mouse IgG secondary antibody; RRID AB_621842; Li-Cor) for 45 minutes, washed 3 times for 5 minutes in TBST, and visualized by infrared fluorescence (Li-Cor). Four independent peptide spot arrays were used in this study. Fluorescence intensity was analyzed with Image studio (Li-Cor).
# [2] = molecular target: T2, Kv2.1 (endogenous, rat cortical neurons); assay: proximity ligation assay in fixed rat cortical neurons
# Description: Duolink proximity ligation assay (PLA) technology (Sigma-Aldrich, St. Louis, Mo.) was utilized to assess in situ protein-protein interaction between Kv2.1 and vesicle-associated molecular protein (VAMP)-associated protein A (VAPA). Primary cortical neurons on glass coverslips were treated in 24-well plates with vehicle (dH₂O), TAT-Sc-2 (10 μM), or TAT-DP-2 (10 μM) for 2 hours at 37° C./5% CO₂. Neurons were then rinsed with 2 mL ice-cold sterile PBS and then transferred to 1 mL 4% paraformaldehyde (PFA) in PBS for 20 minutes to fix. Coverslips were transferred to 1 mL 0.1 M glycine (in PBS) to quench fixation and rinsed three times in 1 mL PBS. Membrane permeabilization was accomplished with 1 mL 0.25% Triton X-100 (Sigma-Aldrich, St. Louis, Mo.) and non-specific binding was blocked with 10% bovine serum albumin (in PBS) for 30 minutes. Primary immunolabeling was accomplished by 18-24 hour exposure to rabbit anti-Kv2.1 polyclonal antibody (1:500 in 3% BSA; RRID AB_2040162; Alomone Labs, Jerusalem, Israel), mouse anti-VAPA monoclonal antibody (1:500 in 3% BSA; RRID AB_2722702; UC Davis/NeuroMab Facility), and chicken anti-MAP2 polyclonal antibody (1:1000 in 3% BSA; RRID AB_5392; Abcam, Cambridge, Mass.) in 3% BSA (in PBS) at 4° C. under gentle agitation. […]
binding result [2],Binder,binding result [1]
,SFISCAT (The text says it was tested on the peptide array) [non-canonical FFAT motif of Kv2.1 (SFISCAT)],no binding (tested: lysate at 1 mg/ml of total protein)
,SFTSCAT [non-canonical FFAT motif of Kv2.2 (SFTSCAT)],no binding (tested: lysate at 1 mg/ml of total protein)
,SIDSFTS (Synthesised and spotted on Celluspots membrane through a polyethylene glycerol spacer (peptide spot array); also called declustering peptide 2) [DP-2 peptide (SIDSFTS)],no binding (tested: lysate at 1 mg/ml of total protein)
,SIDEFTS [Ser to Glu mutant of DP-2 (SIDEFTS)],no binding (tested: lysate at 1 mg/ml of total protein)
,SIDSFTD [Ser to Asp mutant of DP-2 (SIDSFTD)],no binding (tested: lysate at 1 mg/ml of total protein)
,DIDDFTS [Ser to Asp mutant of DP-2 (DIDDFTS)],no binding (tested: lysate at 1 mg/ml of total protein)
,EIDSFTS [Ser to Glu mutant of DP-2 (EIDSFTS)],no binding (tested: lysate at 1 mg/ml of total protein)
,EIDEFTE [Ser to Glu mutant of DP-2 (EIDEFTE)],no binding (tested: lysate at 1 mg/ml of total protein)
,SIDDFTD [Ser to Asp mutant of DP-2 (SIDDFTD)],no binding (tested: lysate at 1 mg/ml of total protein)
,EIDEFTS [Ser to Glu mutant of DP-2 (EIDEFTS)],no binding (tested: lysate at 1 mg/ml of total protein)
,DIDSFTS [Ser to Asp mutant of DP-2 (DIDSFTS)],no binding (tested: lysate at 1 mg/ml of total protein)
,DIDDFTD [Ser to Asp mutant of DP-2 (DIDDFTD)],no binding (tested: lysate at 1 mg/ml of total protein)
,DIDSFTD [Ser to Asp mutant of DP-2 (DIDSFTD)],no binding (tested: lysate at 1 mg/ml of total protein)
,EIDSFTE [Ser to Glu mutant of DP-2 (EIDSFTE)],no binding (tested: lysate at 1 mg/ml of total protein)
,SIDDFTS [Ser to Asp mutant of DP-2 (SIDDFTS)],no binding (tested: lysate at 1 mg/ml of total protein)
,SIDSFTE [Ser to Glu mutant of DP-2 (SIDSFTE)],no binding (tested: lysate at 1 mg/ml of total protein)
,SIDEFTE [Ser to Glu mutant of DP-2 (SIDEFTE)],no binding (tested: lysate at 1 mg/ml of total protein)
binds,"VAPA (endogenous, rat cortical neurons) (other, UniProt Q9Z270 2-249, looked up, whole, on cells; Endogenous ER protein inside fixed, permeabilised neurons, detected with a mouse anti-VAPA antibody; also called VAMP-associated protein A) ASASGAMAKHEQILVLDPPSDLKFKGPFTDVVTTNLKLQNPSDRKVCFKVKTTAPRRYCVRPNSGVIDPGSIVTVSVMLQPFDYDPNEKSKHKFMVQTIFAPPNISDMEAVWKEAKPDELMDSKLRCVFEMPNENDKLNDMEPSKAVPLNASKQDGPLPKPHSVSLNDTETRKLMEECKRLQGEMMKLSEENRHLRDEGLRLRKVAHSDKPGSTSAVSFRDNVTSPLPSLLVVIAAIFIGFFLGKFIL",
